From publication PMC3740164 (Developmental cell, 2013)

Biological target: full-length His6-PIPKIγi5 (human, UniProt O60331-3 1-707)
Test: pull-down

- binding result: binds
B1: GST-SNX5 (natural protein, UniProt Q9Y5X3 1-404, looked up)
chain: MAAVPELLQQQEEDRSKLRSVSVDLNVDPSLQIDIPDALSERDKVKFTVHTKTTLPTFQSPEFSVTRQHEDFVWLHDTLIETTDYAGLIIPPAPTKPDFDGPREKMQKLGEGEGSMTKEEFAKMKQELEAEYLAVFKKTVSSHEVFLQRLSSHPVLSKDRNFHVFLEYDQDLSVRRKNTKEMFGGFFKSVVKSADEVLFTGVKEVDDFFEQEKNFLINYYNRIKDSCVKADKMTRSHKNVADDYIHTAACLHSLALEEPTVIKKYLLKVAELFEKLRKVEGRVSSDEDLKLTELLRYYMLNIEAAKDLLYRRTKALIDYENSNKALDKARLKSKDVKLAEAHQQECCQKFEQLSESAKEELINFKRKRVAAFRKNLIEMSELEIKHARNNVSLLQSCIDLFKNN
